B1: 1ZHC (parent)
chain: HEFRDEISVLKANNPHFDKIFEKHNQLDDDIKTAEQQNASDAEVSHMKKQKLKLKDEIHSMIIEYREK

Variants of: B1
Assay: folding stability dG (cDNA display proteolysis); higher = more stable
Conditions: PBS, room temperature

**Q.** Which “folding stability dG” value does the source give for HEFRDEISVLKANNPHFDKIFEKHNQLDDDIKTAEQGNASDAEVSHMKKQKLKLKDEIHSMIIEYREK [Q37G] here?
**A.** Its value is 0.943 kcal/mol.

**Q.** For HEFRDEISVLKANNPHFDKIFEKHNQLDDDIKTAEQSNASDAEVSHMKKQKLKLKDEIHSMIIEYREK [Q37S], which “folding stability dG” value is on record?
**A.** The value was 1 kcal/mol.

**Q.** Which “folding stability dG” value does the source give for HEFRDEISVLKANNPHFDKIFEKHNQLDDDIKTAEQENASDAEVSHMKKQKLKLKDEIHSMIIEYREK [Q37E] here?
**A.** Its value is 0.422 kcal/mol.

**Q.** With HEFRDEISVLKANNPHFDKIFEKHNQLDDDIKTAEQYNASDAEVSHMKKQKLKLKDEIHSMIIEYREK [Q37Y] as the variant, how does the “folding stability dG” value read?
**A.** The value was 0.718 kcal/mol.

**Q.** With HEFRDEISVLKANNPHFDKIFEKHNQLDDDIKTAEQWNASDAEVSHMKKQKLKLKDEIHSMIIEYREK [Q37W] as the variant, how does the “folding stability dG” value read?
**A.** Its value is 0.426 kcal/mol.

**Q.** With HEFRDEISVLKANNPHFDKIFEKHNQLDDDIKTAEQRNASDAEVSHMKKQKLKLKDEIHSMIIEYREK [Q37R] as the variant, how does the “folding stability dG” value read?
**A.** Its value is 1.51 kcal/mol.

**Q.** Which “folding stability dG” value does the source give for HEFRDEISVLKANNPHFDKIFEKHNQLDDDIKTAEQKNASDAEVSHMKKQKLKLKDEIHSMIIEYREK [Q37K] here?
**A.** The value was 0.764 kcal/mol.

**Q.** With HEFRDEISVLKANNPHFDKIFEKHNQLDDDIKTAEQMNASDAEVSHMKKQKLKLKDEIHSMIIEYREK [Q37M] as the variant, how does the “folding stability dG” value read?
**A.** Its value is 0.926 kcal/mol.

**Q.** For HEFRDEISVLKANNPHFDKIFEKHNQLDDDIKTAEQTNASDAEVSHMKKQKLKLKDEIHSMIIEYREK [Q37T], which “folding stability dG” value is on record?
**A.** Its value is 0.882 kcal/mol.

**Q.** For HEFRDEISVLKANNPHFDKIFEKHNQLDDDIKTAEQINASDAEVSHMKKQKLKLKDEIHSMIIEYREK [Q37I], which “folding stability dG” value is on record?
**A.** Its value is 0.631 kcal/mol.

**Q.** For HEFRDEISVLKANNPHFDKIFEKHNQLDDDIKTAEQDNASDAEVSHMKKQKLKLKDEIHSMIIEYREK [Q37D], which “folding stability dG” value is on record?
**A.** Its value is 0.411 kcal/mol.

**Q.** With HEFRDEISVLKANNPHFDKIFEKHNQLDDDIKTAEQCNASDAEVSHMKKQKLKLKDEIHSMIIEYREK [Q37C] as the variant, how does the “folding stability dG” value read?
**A.** The value was 0.94 kcal/mol.

**Q.** For HEFRDEISVLKANNPHFDKIFEKHNQLDDDIKTAEQLNASDAEVSHMKKQKLKLKDEIHSMIIEYREK [Q37L], which “folding stability dG” value is on record?
**A.** Its value is 0.867 kcal/mol.

**Q.** For HEFRDEISVLKANNPHFDKIFEKHNQLDDDIKTAEQFNASDAEVSHMKKQKLKLKDEIHSMIIEYREK [Q37F], which “folding stability dG” value is on record?
**A.** The value was 0.569 kcal/mol.

**Q.** With HEFRDEISVLKANNPHFDKIFEKHNQLDDDIKTAEQHNASDAEVSHMKKQKLKLKDEIHSMIIEYREK [Q37H] as the variant, how does the “folding stability dG” value read?
**A.** Its value is 1.05 kcal/mol.

**Q.** For HEFRDEISVLKANNPHFDKIFEKHNQLDDDIKTAEQANASDAEVSHMKKQKLKLKDEIHSMIIEYREK [Q37A], which “folding stability dG” value is on record?
**A.** Its value is 1.07 kcal/mol.

**Q.** Which “folding stability dG” value does the source give for HEFRDEISVLKANNPHFDKIFEKHNQLDDDIKTAEQNNASDAEVSHMKKQKLKLKDEIHSMIIEYREK [Q37N] here?
**A.** The value was 1.38 kcal/mol.

**Q.** With HEFRDEISVLKANNPHFDKIFEKHNQLDDDIKTAEQVNASDAEVSHMKKQKLKLKDEIHSMIIEYREK [Q37V] as the variant, how does the “folding stability dG” value read?
**A.** Its value is 0.447 kcal/mol.

**Q.** Which “folding stability dG” value does the source give for HEFRDEISVLKANNPHFDKIFEKHNQLDDDIKTAETQNASDAEVSHMKKQKLKLKDEIHSMIIEYREK [Q36T] here?
**A.** The value was 0.782 kcal/mol.

**Q.** For HEFRDEISVLKANNPHFDKIFEKHNQLDDDIKTAEWQNASDAEVSHMKKQKLKLKDEIHSMIIEYREK [Q36W], which “folding stability dG” value is on record?
**A.** The value was 0.281 kcal/mol.

**Q.** For HEFRDEISVLKANNPHFDKIFEKHNQLDDDIKTAEVQNASDAEVSHMKKQKLKLKDEIHSMIIEYREK [Q36V], which “folding stability dG” value is on record?
**A.** The value was 0.511 kcal/mol.

**Q.** With HEFRDEISVLKANNPHFDKIFEKHNQLDDDIKTAERQNASDAEVSHMKKQKLKLKDEIHSMIIEYREK [Q36R] as the variant, how does the “folding stability dG” value read?
**A.** Its value is 1.25 kcal/mol.

**Q.** Which “folding stability dG” value does the source give for HEFRDEISVLKANNPHFDKIFEKHNQLDDDIKTAESQNASDAEVSHMKKQKLKLKDEIHSMIIEYREK [Q36S] here?
**A.** The value was 1.17 kcal/mol.

**Q.** For HEFRDEISVLKANNPHFDKIFEKHNQLDDDIKTAEKQNASDAEVSHMKKQKLKLKDEIHSMIIEYREK [Q36K], which “folding stability dG” value is on record?
**A.** Its value is 0.963 kcal/mol.

**Q.** Which “folding stability dG” value does the source give for HEFRDEISVLKANNPHFDKIFEKHNQLDDDIKTAELQNASDAEVSHMKKQKLKLKDEIHSMIIEYREK [Q36L] here?
**A.** Its value is 1.02 kcal/mol.

**Q.** With HEFRDEISVLKANNPHFDKIFEKHNQLDDDIKTAEMQNASDAEVSHMKKQKLKLKDEIHSMIIEYREK [Q36M] as the variant, how does the “folding stability dG” value read?
**A.** Its value is 1.31 kcal/mol.

**Q.** For HEFRDEISVLKANNPHFDKIFEKHNQLDDDIKTAEYQNASDAEVSHMKKQKLKLKDEIHSMIIEYREK [Q36Y], which “folding stability dG” value is on record?
**A.** Its value is 0.632 kcal/mol.

**Q.** With HEFRDEISVLKANNPHFDKIFEKHNQLDDDIKTAENQNASDAEVSHMKKQKLKLKDEIHSMIIEYREK [Q36N] as the variant, how does the “folding stability dG” value read?
**A.** Its value is 0.652 kcal/mol.

**Q.** For HEFRDEISVLKANNPHFDKIFEKHNQLDDDIKTAEQQCASDAEVSHMKKQKLKLKDEIHSMIIEYREK [N38C], which “folding stability dG” value is on record?
**A.** Its value is 0.923 kcal/mol.

**Q.** With HEFRDEISVLKANNPHFDKIFEKHNQLDDDIKTAEQQKASDAEVSHMKKQKLKLKDEIHSMIIEYREK [N38K] as the variant, how does the “folding stability dG” value read?
**A.** Its value is 0.548 kcal/mol.

**Q.** Which “folding stability dG” value does the source give for HEFRDEISVLKANNPHFDKIFEKHNQLDDDIKTAEQQMASDAEVSHMKKQKLKLKDEIHSMIIEYREK [N38M] here?
**A.** The value was 0.449 kcal/mol.

**Q.** Which “folding stability dG” value does the source give for HEFRDEISVLKANNPHFDKIFEKHNQLDDDIKTAEQQLASDAEVSHMKKQKLKLKDEIHSMIIEYREK [N38L] here?
**A.** Its value is 0.276 kcal/mol.

**Q.** Which “folding stability dG” value does the source give for HEFRDEISVLKANNPHFDKIFEKHNQLDDDIKTAEQQEASDAEVSHMKKQKLKLKDEIHSMIIEYREK [N38E] here?
**A.** Its value is -0.059 kcal/mol.

**Q.** With HEFRDEISVLKANNPHFDKIFEKHNQLDDDIKTAEQQAASDAEVSHMKKQKLKLKDEIHSMIIEYREK [N38A] as the variant, how does the “folding stability dG” value read?
**A.** The value was 0.467 kcal/mol.

**Q.** Which “folding stability dG” value does the source give for HEFRDEISVLKANNPHFDKIFEKHNQLDDDIKTAEQQFASDAEVSHMKKQKLKLKDEIHSMIIEYREK [N38F] here?
**A.** Its value is 0.925 kcal/mol.

**Q.** For HEFRDEISVLKANNPHFDKIFEKHNQLDDDIKTAEQQDASDAEVSHMKKQKLKLKDEIHSMIIEYREK [N38D], which “folding stability dG” value is on record?
**A.** The value was 0.358 kcal/mol.

**Q.** For HEFRDEISVLKANNPHFDKIFEKHNQLDDDIKTAEQQPASDAEVSHMKKQKLKLKDEIHSMIIEYREK [N38P], which “folding stability dG” value is on record?
**A.** The value was -0.007 kcal/mol.

**Q.** With HEFRDEISVLKANNPHFDKIFEKHNQLDDDIKTAEQQHASDAEVSHMKKQKLKLKDEIHSMIIEYREK [N38H] as the variant, how does the “folding stability dG” value read?
**A.** Its value is 0.624 kcal/mol.

**Q.** Which “folding stability dG” value does the source give for HEFRDEISVLKANNPHFDKIFEKHNQLDDDIKTAEQQGASDAEVSHMKKQKLKLKDEIHSMIIEYREK [N38G] here?
**A.** Its value is 1.55 kcal/mol.

**Q.** For HEFRDEISVLKANNPHFDKIFEKHNQLDDDIKTAEQQIASDAEVSHMKKQKLKLKDEIHSMIIEYREK [N38I], which “folding stability dG” value is on record?
**A.** Its value is -0.331 kcal/mol.

— the MegaScale stability set (Tsuboyama et al. 2023)
